T1: recombinant hIL-6R protein, monomeric form (human, UniProt P08887 20-358)
T1 construct: also called monomeric hIL-6R; Human IL6R
T1 sequence: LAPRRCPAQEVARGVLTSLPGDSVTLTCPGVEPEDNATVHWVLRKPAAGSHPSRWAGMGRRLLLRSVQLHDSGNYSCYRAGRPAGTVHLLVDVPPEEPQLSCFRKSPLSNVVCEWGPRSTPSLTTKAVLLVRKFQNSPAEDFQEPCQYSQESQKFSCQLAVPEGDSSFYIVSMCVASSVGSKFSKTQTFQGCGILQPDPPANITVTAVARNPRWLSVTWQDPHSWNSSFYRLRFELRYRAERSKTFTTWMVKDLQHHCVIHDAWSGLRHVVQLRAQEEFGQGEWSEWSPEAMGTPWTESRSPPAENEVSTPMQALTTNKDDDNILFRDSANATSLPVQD

T2: hIL-6R-hFc (human, UniProt P08887 20-358)
T2 construct: also called dimeric hIL-6R; Dimer; not shown: human Fc (hFc)
T2 sequence: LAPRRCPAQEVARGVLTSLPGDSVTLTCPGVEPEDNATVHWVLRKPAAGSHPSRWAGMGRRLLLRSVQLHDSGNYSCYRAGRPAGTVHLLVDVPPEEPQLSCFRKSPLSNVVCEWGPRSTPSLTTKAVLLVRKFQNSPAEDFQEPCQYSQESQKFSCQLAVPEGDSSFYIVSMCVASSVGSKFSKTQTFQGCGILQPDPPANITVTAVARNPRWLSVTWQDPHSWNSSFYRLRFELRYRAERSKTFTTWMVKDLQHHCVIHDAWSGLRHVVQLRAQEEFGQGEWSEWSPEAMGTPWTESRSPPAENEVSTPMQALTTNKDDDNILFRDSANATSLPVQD

T3: hIL-6R on hIL-6-responsive human cells (XG-1 myeloma line, HepG2 hepatoma line) (human, UniProt P08887 20-468)
T3 sequence (looked up): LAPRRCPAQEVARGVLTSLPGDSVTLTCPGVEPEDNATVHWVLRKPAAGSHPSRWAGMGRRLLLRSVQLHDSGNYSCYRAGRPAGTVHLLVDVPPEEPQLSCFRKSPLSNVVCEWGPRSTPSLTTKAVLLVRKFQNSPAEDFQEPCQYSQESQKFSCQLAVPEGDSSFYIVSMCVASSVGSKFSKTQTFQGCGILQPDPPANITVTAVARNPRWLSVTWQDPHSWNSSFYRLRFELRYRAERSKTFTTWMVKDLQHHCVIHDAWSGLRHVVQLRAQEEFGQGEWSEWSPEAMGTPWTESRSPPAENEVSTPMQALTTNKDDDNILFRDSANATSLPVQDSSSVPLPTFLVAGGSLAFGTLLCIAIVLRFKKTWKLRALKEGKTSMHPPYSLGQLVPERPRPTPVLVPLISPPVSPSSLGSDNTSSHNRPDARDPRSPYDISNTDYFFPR

T4: hIL-6R recombinant protein (plate-coated, Example 5) (human, UniProt P08887 20-358, limits assumed)
T4 construct: also called antigen
T4 sequence: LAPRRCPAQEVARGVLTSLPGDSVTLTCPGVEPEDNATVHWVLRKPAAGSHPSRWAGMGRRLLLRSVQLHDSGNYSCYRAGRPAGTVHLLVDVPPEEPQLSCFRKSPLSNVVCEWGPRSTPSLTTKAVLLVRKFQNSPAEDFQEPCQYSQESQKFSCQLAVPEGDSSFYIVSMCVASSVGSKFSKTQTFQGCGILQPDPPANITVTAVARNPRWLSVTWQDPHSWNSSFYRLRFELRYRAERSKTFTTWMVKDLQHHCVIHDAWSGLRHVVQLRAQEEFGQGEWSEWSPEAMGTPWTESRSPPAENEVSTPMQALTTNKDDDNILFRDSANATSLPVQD

T5: Recombinant monkey monomeric IL-6R protein (Macaca fascicularis, extracellular domain) (Macaca fascicularis, UniProt P08887 21-330 (human entry))
T5 construct: also called Monkey IL6R; monkey IL-6R
T5 chain: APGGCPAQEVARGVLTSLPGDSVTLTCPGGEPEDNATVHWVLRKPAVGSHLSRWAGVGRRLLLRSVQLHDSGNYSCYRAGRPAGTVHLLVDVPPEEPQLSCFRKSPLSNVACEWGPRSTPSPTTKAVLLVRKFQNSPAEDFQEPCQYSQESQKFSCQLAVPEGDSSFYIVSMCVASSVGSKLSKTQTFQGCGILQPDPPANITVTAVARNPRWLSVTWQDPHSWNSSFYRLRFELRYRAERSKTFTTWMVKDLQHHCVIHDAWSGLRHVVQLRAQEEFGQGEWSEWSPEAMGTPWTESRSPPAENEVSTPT


What was measured:
[1] = target: hIL-6R on hIL-6-responsive human cells (XG-1 myeloma line, HepG2 hepatoma line) (human) (UniProt P08887); test: cell-based or functional assay
[2] = target: recombinant hIL-6R protein, monomeric form (human) (UniProt P08887); test: SPR (BIAcore), captured antibody, monomeric hIL-6R
[3] = target: recombinant hIL-6R protein, monomeric form (human) (UniProt P08887); test: Kinexa solution-phase competition immunoassay, monomeric hIL-6R
[4] = target: Recombinant monkey monomeric IL-6R protein (Macaca fascicularis, extracellular domain) (Macaca fascicularis); test: SPR (BIAcore), captured antibody, monomeric IL-6R 1.25-40 nM injected
[5] = target: recombinant hIL-6R protein, monomeric form (human) (UniProt P08887); test: as above
hIL-6R-hFc (human) = hIL-6R-hFc (human) (UniProt P08887); test: blocking ELISA: 100 pM hIL-6R-hFc premixed with varied antibody, free hIL-6R-hFc captured on hIL-6-coated plate
[6] = target: T1, recombinant hIL-6R protein, monomeric …; test: SPR (BIAcore), captured antibody, monomeric hIL-6R
hIL-6R-hFc [7] = target: T2, hIL-6R-hFc; test: competition ELISA: antibody premixed with serial dilutions of hIL-6R-hFc, free antibody detected on hIL-6R-hFc-coated plate
[8] = target: T3, hIL-6R on hIL-6-responsive human cells …; test: cell-based or functional assay
[9] = target: T3, hIL-6R on hIL-6-responsive human cells …; test: cell-based or functional assay; remark: listed apart in the source
[10] = target: T1, recombinant hIL-6R protein, monomeric …; test: Kinexa solution-phase competition immunoassay, monomeric hIL-6R
[11] = target: T4, hIL-6R recombinant protein …; test: SPR (BIAcore) competition on hIL-6R; competitor: control antibody
[12] = target: T1, recombinant hIL-6R protein, monomeric …; test: SPR (BIAcore), captured mouse-IgG antibody, monomeric hIL-6R 1.56-12.5 nM
hIL-6R-hFc [13] = target: T2, hIL-6R-hFc; test: SPR (BIAcore), antibody captured on anti-mouse IgG surface, dimeric hIL-6R
[14] = target: T1, recombinant hIL-6R protein, monomeric …; test: SPR (BIAcore), antibody captured on anti-mouse IgG surface, monomeric hIL-6R
[15] = target: T1, recombinant hIL-6R protein, monomeric …; test: SPR (BIAcore), captured mouse-IgG antibody, monomeric hIL-6R 1.56-12.5 nM; mIgG2a isotype
[16] = target: T1, recombinant hIL-6R protein, monomeric …; test: SPR (BIAcore), antibody captured on goat anti-mouse Fc, monomeric IL-6R 1.25-40 nM injected
[17] = target: T5, Recombinant monkey monomeric IL-6R …; test: as above
hIL-6R-hFc [18] = target: T2, hIL-6R-hFc; test: SPR (BIAcore): hIL-6R-hFc captured, antibody injected, then 50 nM hIL-6; percent reduction in hIL-6 binding
hIL-6R-hFc [19] = target: T2, hIL-6R-hFc; test: blocking ELISA: 100 pM hIL-6R-hFc premixed with varied antibody, free hIL-6R-hFc captured on hIL-6-coated plate
[20] = target: T4, hIL-6R recombinant protein …; test: competition ELISA on hIL-6R-coated plate presaturated with competitor control antibody; test antibody 50 ng/ml
[21] = target: T5, Recombinant monkey monomeric IL-6R …; test: SPR (BIAcore); reference: binding to human IL-6R; end of range tied to this antibody by Table 4 (0.143 against 0.051 nM)
[22] = target: T5, Recombinant monkey monomeric IL-6R …; test: SPR (BIAcore); reference: binding to human IL-6R; end of range tied to this antibody by Table 4 (0.569 against 0.377 nM)

humanized monoclonal antibody to human IL-6R (U.S. Patent No. 5,817,790 SEQ ID NO:69 and 71), sequence (VH): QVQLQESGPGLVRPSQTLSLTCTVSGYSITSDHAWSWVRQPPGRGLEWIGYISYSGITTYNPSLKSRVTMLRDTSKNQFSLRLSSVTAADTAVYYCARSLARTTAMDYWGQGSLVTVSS
humanized monoclonal antibody to human IL-6R (U.S. Patent No. 5,817,790 SEQ ID NO:69 and 71), sequence (VL): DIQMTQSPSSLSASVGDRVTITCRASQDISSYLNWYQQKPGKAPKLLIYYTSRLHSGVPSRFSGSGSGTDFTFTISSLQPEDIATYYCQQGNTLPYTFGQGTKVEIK

Molecule	IC50 (hIL-6R-hFc [7]) [pM]	HepG2/Stat3 Luciferase activity IC50 [8] [nM]	XG-1 cell proliferation Inhibition IC50 [8] [nM]	HepG2/STAT3 luciferase assay IC50 [9] [nM]	Kd [10] [nM]	% reduction of binding by control antibody [11] [%]	koff [12] [s⁻¹]	kon [12] [M⁻¹ s⁻¹]	Kd (hIL-6R-hFc [13]) [nM]	Kd [14] [nM]	Kd [16] [nM]	koff [16] [s⁻¹]	kon [16] [M⁻¹ s⁻¹]	Kd [17] [nM]	koff [17] [s⁻¹]	kon [17] [M⁻¹ s⁻¹]	hIL6/hIL6R Binding Inhibition (%) (hIL-6R-hFc [18])	IC50 (hIL-6R-hFc [19]) [nM]	% reduction of binding by control antibody [20] [%]	Kd [12] [nM]	other results
humanized monoclonal antibody to human IL-6R (U.S. Patent No. 5,817,790 SEQ ID NO:69 and 71)	–	–	–	–	–	–	–	–	–	–	–	–	–	–	–	–	–	–	–	–	HepG2/Stat3 Luciferase activity IC50 [1]: 0.854 nM; XG-1 cell proliferation Inhibition IC50 [1]: 1.5 nM; Kd [2]: 1.79 nM; Kd [3]: 1.96 nM; Kd [4]: 1.17 nM; Kd [5]: 0.963 nM; IC50 (hIL-6R-hFc (human)): 2.2 nM
248982-13-2-A9 (antibody, V domains shown) VH: QVQLVQSGGGLVQPGRSLRLSCAASGFTFDDYAMHWVRQAPGKGLEWVSGISWNSGRVGYADSVKGRFTISRDNAKNSLYLQMNSLRAEDTALYYCTKGRDAFDIWGQGTMVTVSS VL: DIVMTQSPSSVSASVGDRVTITCRASQGISSWLAWYQQKPGKAPKLLIYAASSLQSGVPSRFSGSGSGTDFTLTISSLQPEDFATYYCQQANSFPYTFGQGTKLEIK	54	–	–	–	–	–	–	–	–	–	–	–	–	–	–	–	–	–	–	–	Kd [6]: 2.87 nM
VQ8F11-21 (antibody, V domains shown, Human variable regions with mouse constant region; also called VQ8F11-21 mIgG2a) VH: EVQLVESGGGLVQPGRSLRLSCAASRFTFDDYAMHWVRQAPGKGLEWVSGISWNSGRIGYADSVKGRFTISRDNAENSLFLQMNGLRAEDTALYYCAKGRDSFDIWGQGTMVTVSS VL: DIQMTQSPSSVSASVGDRVTITCRASQGISSWLAWYQQKPGKAPKLLIYGASSLESGVPSRFSGSGSGTDFTLTISSLQPEDFASYYCQQANSFPYTFGQGTKLEIK	8	0.135	0.62	0.135	0.009	96	5.27e-05	786000	0.023	0.067	0.051	4.38e-05	851000	0.143	4.86e-05	339000	98	0.12	79	–	Kd [15]: 0.067 nM; fold difference of KD, monkey against human receptor [21]: 3 fold
VV6A9-5 (antibody, V domains shown, Human variable regions with mouse constant region; also called VV6A9-5 mIgG2a) VH: EVQLVESGGGLVQPGRSLRLSCAASGFTFDDYALHWVRQAPGKGLEWVSGVSWNGGRIGYADSVKGRFTISRDNAKNSLFLQMNSLRVEDTALYYCAKGRDAFDIWGQGTLVTVSS VL: DIQMTQSPSSVSASVGDRVTITCRASQGISSWLAWYQQKPGKAPKLLIYAASSLQSGVPSRFSGSGSGTDFTLTISSLQPEDFATYYCQHAYSFPYTFGQGTKLEIK	5	0.188	1.1	0.188	0.032	96	7.52e-05	772000	0.146	0.097	0.162	8.41e-05	518000	0.154	7.7e-05	500000	100	0.35	84	0.097	–
VQ8A9-6 (antibody, V domains shown, Human variable regions with mouse constant region (hybridoma-derived chimeric antibody); also called VQ8A9-6 mIgG1) VH: EVQLVESGGNLVQPGRSLRLSCAASGFIFDDYAMHWVRQAPGKGLEWVSGISWNSGSIGYADSVKGRFTISRDNAKNSLYLQMNSLRAEDTALYYCAKDGGSSWLPFVYYYGMDVWGQGTTVTVSS VL: EIVMTQSPATLSVSPGERATLSCRASQSISSNFAWYQQKPGQAPRLLIYGASTRATGIPARFSGSGSGTDFTLTISSLQSEDFAVYYCQQYSSWPPYTFGQGTKLEIK	4	0.097	0.4	0.097	0.12	26	0.000221	995000	0.101	0.222	0.377	0.000276	732000	0.569	0.000416	731000	68	0.39	3	0.222	fold difference of KD, monkey against human receptor [22]: 1.5 fold

— US20070280945A1 (Regeneron, published 2007)
